Target: NFL-c-Myc (firefly, UniProt P08659 1-398 = luciferase, phosphorylated in the cells at S62 and T58 (c-Myc numbering))
Experiment: cell-based or functional assay

NFL-c-Myc, sequence (P08659 other isoform, or with tags, fused parts or gaps limits assumed): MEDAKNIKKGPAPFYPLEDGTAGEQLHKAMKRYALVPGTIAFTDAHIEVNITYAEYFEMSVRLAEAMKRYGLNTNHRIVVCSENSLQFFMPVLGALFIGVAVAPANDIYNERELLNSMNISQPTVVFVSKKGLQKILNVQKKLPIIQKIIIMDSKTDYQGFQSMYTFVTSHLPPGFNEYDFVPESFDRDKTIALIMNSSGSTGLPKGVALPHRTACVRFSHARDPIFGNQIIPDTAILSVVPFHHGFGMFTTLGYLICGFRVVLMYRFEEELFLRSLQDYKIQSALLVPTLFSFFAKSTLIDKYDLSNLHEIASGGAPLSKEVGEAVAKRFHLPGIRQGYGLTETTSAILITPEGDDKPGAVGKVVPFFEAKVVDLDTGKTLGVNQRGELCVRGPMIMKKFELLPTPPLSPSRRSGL

B1: GSK Full-CFL (other, not shown: large carriers)
chain: MSGRPRTTSFAESCKPVQQPSAFGSMKVSRDKDGSKVTTVVATPGQGPDRPQEVSYTDTKVIGNGSFGVVYQAKLCDSGELVAIKKVLQDKRFKNRELQIMRKLDHCNIVRLRYFFYSSGEKKDEVYLNLVLDYVPETVYRVARHYSRAKQTLPVIYVKLYMYQLFRSLAYIHSFGICHRDIKPQNLLLDPDTAVLKLCDFGSAKQLVRGEPNVSYICSRYYRAPELIFGATDYTSSIDVWSAGCVLAELLLGQPIFPGDSGVDQLVEIIKVLGTPTREQIREMNPNYTEFKFPQIKAHPWTKDSSGTGHFTSGVRVFRPRTPPEAIALCSRLLEYTPTARLTPLEACAHSFFDELRDPNVKLPNGRDTPALFNFTTQELSSNPPLATILIPPHARIQAAASTPTNATAASDANTGDRGQTNNAASASASNST
With B1 the “complemented FL activity (BLI, SKBR3 cells), compared with the pairing of GSK Full-CFL and NFL-SH2-SH2” value was over 10 fold.

B2: GSK 35-433-CFL (other, not shown: large carriers)
chain: SKVTTVVATPGQGPDRPQEVSYTDTKVIGNGSFGVVYQAKLCDSGELVAIKKVLQDKRFKNRELQIMRKLDHCNIVRLRYFFYSSGEKKDEVYLNLVLDYVPETVYRVARHYSRAKQTLPVIYVKLYMYQLFRSLAYIHSFGICHRDIKPQNLLLDPDTAVLKLCDFGSAKQLVRGEPNVSYICSRYYRAPELIFGATDYTSSIDVWSAGCVLAELLLGQPIFPGDSGVDQLVEIIKVLGTPTREQIREMNPNYTEFKFPQIKAHPWTKDSSGTGHFTSGVRVFRPRTPPEAIALCSRLLEYTPTARLTPLEACAHSFFDELRDPNVKLPNGRDTPALFNFTTQELSSNPPLATILIPPHARIQAAASTPTNATAASDANTGDRGQTNNAASASASNST
B2 was tested, and the “complemented FL activity of SKBR3 xenografts in nude mice, normalized to hRL activity, compared with pcDNA3.1(+) vector” value was 10.6 fold.

— patent US20120270914A1 (Stanford University, published 2012)
